Data: patent publication US20240131162A1

Target: HER-2 (human) (UniProt P04626)
Assay: SPR (BIAcore), HER-2 immobilised, antibody as analyte

koff: 6.3e-06 s⁻¹
kon: 110000 M⁻¹ s⁻¹
Substance: ch4D5 (antibody)
